From US20090117091A1 (BIOMARIN PHARMACEUTICAL, published 2009)

Target: GILT-tagged GAA ZC-701 (human, UniProt P10253 70-952)
Assay: SPR (Biacore 3000); biotinylated CI-MPR Dom10-13 on SA chip, analyte in solution, steady-state affinity fit, I1572T mutant surface as reference
Procedure: Following docking of the SA sensor chip, the SA chip was washed two times with deionized water. The flow cells to be coupled were conditioned by injecting 60 ml of a buffer containing 50 mM NaOH/1 M NaCl at a flow rate of 20 ml/min. The chip was washed with H2O as described above. The chip was then washed with coupling buffer (10 mM HEPES pH 7.4/100 mM NaCl) as described above. […] Flow cells (FC) 1 & 2 were coupled at a higher density than FC 3 & 4. FC1 and FC3 were immobilized with the mutant Dom 10-13 construct and were used as the reference surface (i.e., the response obtained from FC1 was subtracted from FC2; the response obtained from FC3 was subtracted from FC4). FC2 and FC4 were immobilized with the wild-type Dom10-13 construct. […] Following the 50 ml injection of coupling buffer containing the Dom10-13 constructs, the chip was washed with coupling buffer alone (10 ml injection at a flow rate of 10 ml/min). Remaining unbound streptavidin binding sites were saturated with biotin by two sequential 10 ml injections of biotin (10 mM) at a flow rate of 10 μl/min.
After coupling, the flow cells were equilibrated in running buffer (10 mM HEPES pH 7.0, 150 mM NaCl, and 0.005% (v/v) surfactant P20).

B1: biotinylated, His-tagged recombinant wild-type CI-MPR domains 10-13 (1288FS) (receptor)
chain: AGAPTGHHHHHHAPGLNDIFEAQKIEWHEPFDLTECSFKDGAGNSFDLSSLSRYSDNWEAITGTGDPEHYLINVCKSLAPQAGTEPCPPEAAACLLGGSKPVNLGRVRDGPQWRDGIIVLKYVDGDLCPDGIRKKSTTIRFTCSESQVNSRPMFISAVEDCEYTFAWPTATACPMKSNEHDDCQVTNPSTGHLFDLSSLSGRAGFTAAYSEKGLVYMSICGENENCPPGVGACFGQTRISVGKANKRLRYVDQVLQLVYKDGSPCPSKSGLSYKSVISFVCRPEAGPTNRPMLISLDKQTCTLFFSWHTPLACEQATECSVRNGSSIVDLSPLIHRTGGYEAYDESEDDASDTNPDFYINICQPLNPMHGVPCPAGAAVCKVPIDGPPIDIGRVAGPPILNPIANEIYLNFESSTPCLADKHFNYTSLIAFHCKRGVSMGTPKLLRTSECDFVFEWETPVVCPDEVRMDGCTLTDEQLLYSFNLSSLSTSTFKVTRDSRTYSVGVCTFAVGPEQGGCKDGGVCLLSGTKGASFGRLQSMKLDYRHQDEAVVLSYVNGDRCPPETDDGVPCVFPFIFNGKSYEECIIESRAKLWCSTTADYDRDHEWGFCRHSNSYRTSSIIFKCDEDEDIGRPQVFSEVRGCDVTFEWKTKVVCP
modifications: biotinylated with BirA enzyme in the Biotin AS domain
notes: The protein was immobilised on a streptavidin chip; also called p1288; HIS-BIOTIN-CI-MPR DOMAINS 10-13
Kd: 33 nM
